Target: 508F(Fv)-CBD (508 scFv mutant C96F fused to CBD) (Clostridium thermocellum) (UniProt Q06851)
Experiment: competitive ELISA, soluble βAP(1-16) pre-incubated with 508F(Fv)-CBD before βAP coated wells

βAP(1-16), β-amyloid 1-16 amino acid peptide
IC50: 1 µM

From US20040013647A1
